The source of these data is PMC5114276.

Assay [1] addresses connexin36 (Cx36), rat, full length, fluorescently tagged (rat) (UniProt O70610). The assay can be described thus: FRET or BRET; acceptor bleach FRET on a confocal microscope, Neuro2a cells 48 h after transient co-transfection; read at gap junction plaques (GJP) or at vesicles; non-stimulated or with 2 mM [Ca2+]E and 2 μM ionomycin, 24 μM BAPTA-AM or 10 μM W-7; FRET distance calculated from the efficiency (Ro 5.09), threshold 10 nm.

Assay [2] has the same target.
Assay [3] addresses Cx36 mutant G276A, rat, full length, fluorescently tagged (rat) (UniProt O70610). The assay can be described thus: FRET or BRET; acceptor bleach FRET on a confocal microscope, Neuro2a cells 48 h after transient co-transfection; read at gap junction plaques (GJP) or at vesicles; non-stimulated or with 2 mM [Ca2+]E and 2 μM ionomycin, 24 μM BAPTA-AM or 10 μM W-7; FRET distance calculated from the efficiency (Ro 5.09), threshold 10 nm.

Assay [4] concerns the target Cx36 mutant R278A, rat, full length, fluorescently tagged (rat) (UniProt O70610). The description is as above.

As for “calcium insensitive mutant CaM_(E1234Q) (from UniProt P0DP29 1-149) (natural protein)”, in assay [1], the FRET distance (GJP, non-stimulated) was 10.9 nm; the FRET distance (GJP, stimulated with Ca2+ and ionomycin) was 10.1 nm; the FRET distance (vesicles, non-stimulated) is 9.96 nm; the FRET distance (vesicles, stimulated with Ca2+ and ionomycin) is 10.8 nm.
As to “calmodulin (CaM), rat, full length, fluorescently tagged (from UniProt P0DP29 1-149) (natural protein)”, in assay [2], the ethidium bromide fluorescence recovery after photobleaching in pairs of Neuro2a cells expressing Cx36–ECFP (CaM of the cells), non-stimulated worked out at 5.82%; the ethidium bromide fluorescence recovery after photobleaching in pairs of Neuro2a cells expressing Cx36–ECFP (CaM of the cells), stimulated with 2 mM [Ca2+]E and 2 μM ionomycin is 47.5%; the ethidium bromide fluorescence recovery after photobleaching in pairs of Neuro2a cells expressing Cx36–ECFP, CaM blocked with 10 μM W-7, non-stimulated came out at 16.6%; the ethidium bromide fluorescence recovery after photobleaching in pairs of Neuro2a cells expressing Cx36–ECFP, CaM blocked with 10 μM W-7, stimulated with 2 mM [Ca2+]E and 2 μM ionomycin turned out to be 3.77%. In assay [3], the FRET distance (vesicles, non-stimulated) is 8.16 nm; the FRET distance (vesicles, stimulated with Ca2+ and ionomycin) was 7.48 nm; the FRET efficiency (vesicles, non-stimulated) was 6.61%; the FRET efficiency (vesicles, stimulated with Ca2+ and ionomycin) was 9.74%. Further, in assay [1], the FRET distance (GJP, non-stimulated) was 9.11 nm; the FRET distance (GJP, stimulated with Ca2+ and ionomycin) is 9.61 nm; the FRET distance (vesicles, non-stimulated) was 9.27 nm; the FRET distance (vesicles, non-stimulated; panel of the alanine mutants) is 9.15 nm. Further, in assay [1], the FRET distance (vesicles, stimulated with Ca2+ and ionomycin) was 8.09 nm; the FRET distance (vesicles, stimulated with Ca2+ and ionomycin; panel of the alanine mutants) was 7.69 nm; the FRET efficiency (GJP, 10 μM W-7) is 2.7%; the FRET efficiency (GJP, 24 μM BAPTA-AM) is 2.8%. Besides, in assay [1], the FRET efficiency (GJP, non-stimulated; FRET pair I Cx36–DsRed, CaM–ECFP) was 3.23%; the FRET efficiency (GJP, non-stimulated; FRET pair II Cx36–ECFP, CaM–DsRed) is 3.35%; the FRET efficiency (GJP, stimulated with Ca2+ and ionomycin) is 2.8%; the FRET efficiency (vesicles, non-stimulated; FRET pair I Cx36–DsRed, CaM–ECFP) is 3.65%. In assay [1], the FRET efficiency (vesicles, non-stimulated; FRET pair II Cx36–ECFP, CaM–DsRed) is 3.09%; the FRET efficiency (vesicles, stimulated with Ca2+ and ionomycin) was 6.38%; the FRET efficiency (vesicles, stimulated with Ca2+ and ionomycin; panel of the alanine mutants) was 8.82%. In addition, in assay [4], the FRET distance (vesicles, non-stimulated) was 9.33 nm; the FRET distance (vesicles, stimulated with Ca2+ and ionomycin) is 8.26 nm; the FRET efficiency (vesicles, non-stimulated) was 2.84%; the FRET efficiency (vesicles, stimulated with Ca2+ and ionomycin) is 6.54%.
